Results published in the supplement of paper PMC10899765.

Columns and labels:
Conditions in all cases: 20 nM; 72 h
MCF10A [1] = experiment: 5+ nucleoli phenotype percent effect (relative to siNT 0% and siKIF11 100%); higher = more cells with five or more nucleoli
Procedure: (§1)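 After 72 h, cells were fixed and stained with Hoechst and anti-fibrillarin, and nucleoli per nucleus were counted with CellProfiler. Values are plate-adjusted percent effect for the one-nucleolus and 5+ nucleoli phenotypes, normalised to siNT (0%) and to the positive controls siNOL11 or siKIF11 (100%), as the mean of biological triplicates. Percent viability is the nuclei count relative to siNT.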

MCF10A [2] = experiment: one-nucleolus phenotype percent effect (relative to siNT 0% and siNOL11 100%); higher = more cells with one nucleolus (ribosome biogenesis inhibition)
Procedure: as §1

MCF10A [3] = experiment: percent viability (nuclei count relative to siNT); higher = more viable cells
Procedure: as §1

Row | Sequence | 5+ nucleoli phenotype percent effect (MCF10A [1]) | one-nucleolus phenotype percent effect (MCF10A [2]) | percent viability (MCF10A [3])
1 | CUGAAUAGCUGGGACUACAGGU [hsa-miR-5585-3p] | 16.9% | -12.6% | 44.1%
2 | AAAAACCACAAUUACUUUU [hsa-miR-548ap-3p] | -30.6% | 16.7% | 30.2%
3 | CUGUACAACCUUCUAGCUUUCC [hsa-let-7c-3p] | -7.45% | -4.89% | 74.2%
4 | UCUCUGCUCUGCUCUCCCCAG [hsa-miR-6728-3p] | 19.2% | -7.63% | 28.9%
5 | CUGGGCCCGCGGCGGGCGUGGGG [hsa-miR-6724-5p] | 19.6% | -9.05% | 74.9%
6 | ACCUGGCAGCAGGGAGCGUCGU [hsa-miR-8073] | -35.6% | 28.9% | 33.8%
7 | UCCCAGGGUCUGGUCAGAGUUG [hsa-miR-6764-5p] | -18.4% | 29.5% | 25.8%
8 | UCUGGCUCCGUGUCUUCACUCCC [hsa-miR-149-5p] | -2.69% | 30.7% | 32.7%
9 | ACUGGGUAGGUGGGGCUCCAGG [hsa-miR-6861-5p] | -15.5% | 6.88% | 31.9%
10 | UGACCUUUGCCUCUCCCCUCAG [hsa-miR-6759-3p] | -31.2% | 51.3% | 20.7%
11 | GUAGGGGCGUCCCGGGCGCGCGGG [hsa-miR-6789-5p] | 28.1% | -25.6% | 77.1%
12 | UCAACAAAAUCACUGAUGCUGGA [hsa-miR-3065-5p] | 38.2% | -30.5% | 117%
13 | AAGCGACCAUGAUGUAACUUCA [hsa-miR-4670-5p] | -4.37% | 14% | 49.2%
14 | GUGUUCUCUGAUGGACAG [hsa-miR-4273] | 10.3% | -6.59% | 49.3%
15 | UGCGUUUCUCCUCUUGAGCAG [hsa-miR-6854-3p] | -12.2% | 21.3% | 23.5%
16 | AUUGAAACCUCUAAGAGUGGA [hsa-miR-510-3p] | 8.91% | -2.4% | 41.7%
17 | GAGAGCAGUGUGUGUUGCCUGG [hsa-miR-2278] | -44.7% | 40.5% | 30.7%
18 | UUCAGCAGGAACAGCU [hsa-miR-4291] | -7.69% | -4.14% | 45.7%
19 | CAGGCAGAAGUGGGGCUGACAGG [hsa-miR-6511a-5p] | 3.66% | 6.88% | 69.3%
20 | AGGUAGACUGGGAUUUGUUGUU [hsa-miR-3529-5p] | -26.7% | 27.4% | 21.7%
21 | AGGGGGCGCAGUCACUGACGUG [hsa-miR-4697-5p] | -0.0636% | 5.16% | 18.2%
22 | CCAACCUAGGUGGUCAGAGUUG [hsa-miR-4714-3p] | 42% | -11.1% | 98.3%

Row | Sequence | 5+ nucleoli phenotype percent effect (MCF10A [1]) | one-nucleolus phenotype percent effect (MCF10A [2]) | percent viability (MCF10A [3])
23 | UUUUGCACCUUUUGGAGUGAA [hsa-miR-507] | -28% | 25.1% | 42.2%
24 | UGCAAAAGUAAUUGCAGUUUUUG [hsa-miR-548x-5p] | -24.2% | -9.86% | 63%
25 | GAGGCUGAUGUGAGUAGACCACU [hsa-miR-3929] | -13.8% | 14.1% | 30.5%
26 | UACCCUGUAGAUCCGAAUUUGUG [hsa-miR-10a-5p] | -19.7% | 19.4% | 39.9%
27 | AGUAUUCUGUACCAGGGAAGGU [hsa-miR-630] | 49.7% | -15.1% | 68.7%
28 | UGUGUACACACGUGCCAGGCGCU [hsa-miR-3177-5p] | 61.9% | -22.2% | 131%
29 | UCCUCCUCUACCUCAUCCCAGU [hsa-miR-5193] | -13.6% | 9.86% | 35.1%
30 | AAGAAGAGACUGAGUCAUCGAAU [hsa-miR-5197-3p] | 26.1% | -5.79% | 24.8%
31 | UGCCUACUGAGCUGAUAUCAGU [hsa-miR-24-1-5p] | -18% | 3.46% | 49.2%
32 | AGAUAUUUUGAGUGUUUGGAAUUG [hsa-miR-3145-3p] | -8.4% | -11.7% | 48.7%
33 | AUGAAGUGCACUCAUGAUAUGU [hsa-miR-3616-5p] | -38.4% | 32.7% | 27.9%
34 | UGGGUGGAAGAAGGUCUGGUU [hsa-miR-6745] | -9.03% | 17.1% | 6.73%
35 | ACUCGCAUCCUUCCCUUGGCAG [hsa-miR-6814-3p] | 32.1% | -25.3% | 118%
36 | UAAGGAGGGGGAUGAGGGG [hsa-miR-6891-5p] | -18.8% | -7.18% | 51.8%
37 | UGGGGGUGGUCUCUAGCCAAGG [hsa-miR-6842-5p] | -11.8% | -7.28% | 9.46%
38 | AAAAGUUAUUGCGGUUUUGGCU [hsa-miR-548at-5p] | 15% | -14.7% | 54.1%
39 | UGAUUGUAGCCUUUUGGAGUAGA [hsa-miR-508-3p] | -32% | 23.4% | 54.1%
40 | UUGAGGAGACAUGGUGGGGGCC [hsa-miR-4689] | 2.8% | 12.3% | 103%
41 | GAGACUGGGGUGGGGCC [hsa-miR-4463] | -7.37% | -14.3% | 64.8%
42 | CCGUGUUUCCCCCACGCUUU [hsa-miR-3676-3p] | -17.2% | 4.15% | 72.3%
43 | UAGGCAGUGUAUUGCUAGCGGCUGU [hsa-miR-449c-5p] | -19.5% | 17.4% | 17.7%
44 | UCAAAACUGAGGGGCAUUUUCU [hsa-miR-1323] | 27.8% | -19.4% | 55.9%
